Here are results for 9 variants from IntAct's records for PubMed 25502805.

Sequences and labels used below:
B1: Cyclin-dependent kinase 4 (Homo sapiens), P11802 (parent)
chain: MATSRYEPVAEIGVGAYGTVYKARDPHSGHFVALKSVRVPNGGGGGGGLPISTVREVALLRRLEAFEHPNVVRLMDVCATSRTDREIKVTLVFEHVDQDLRTYLDKAPPPGLPAETIKDLMRQFLRGLDFLHANCIVHRDLKPENILVTSGGTVKLADFGLARIYSYQMALTPVVVTLWYRAPEVLLQSTYATPVDMWSVGCIFAEMFRRKPLFCGNSEADQLGKIFDLIGLPPEDDWPRDVSLPRGAFPPRGPRPVQSVVPEMEESGAQLLLEMLTFNPHKRISAFRALQHSYLHKDEGNPE
B2: Emerin (Homo sapiens), P50402 (parent)
chain: MDNYADLSDTELTTLLRRYNIPHGPVVGSTRRLYEKKIFEYETQRRRLSPPSSSAASSYSFSDLNSTRGDADMYDLPKKEDALLYQSKGYNDDYYEESYFTTRTYGEPESAGPSRAVRQSVTSFPDADAFHHQVHDDDLLSSSEEECKDRERPMYGRDSAYQSITHYRPVSASRSSLDLSYYPTSSSTSFMSSSSSSSSWLTRRAIRPENRAPGAGLGQDRQVPLWGQLLLFLVFVIVLFFIYHFMQAEEGNPF
partner: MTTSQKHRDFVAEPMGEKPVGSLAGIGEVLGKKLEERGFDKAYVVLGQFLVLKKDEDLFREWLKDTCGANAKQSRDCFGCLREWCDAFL
B3: Barrier-to-autointegration factor (Homo sapiens), O75531 (parent)
chain: B2 partner
partner: B2 chain
B4: DNA mismatch repair protein Mlh1 (Homo sapiens), P40692 (parent)
chain: MSFVAGVIRRLDETVVNRIAAGEVIQRPANAIKEMIENCLDAKSTSIQVIVKEGGLKLIQIQDNGTGIRKEDLDIVCERFTTSKLQSFEDLASISTYGFRGEALASISHVAHVTITTKTADGKCAYRASYSDGKLKAPPKPCAGNQGTQITVEDLFYNIATRRKALKNPSEEYGKILEVVGRYSVHNAGISFSVKKQGETVADVRTLPNASTVDNIRSIFGNAVSRELIEIGCEDKTLAFKMNGYISNANYSVKKCIFLLFINHRLVESTSLRKAIETVYAAYLPKNTHPFLYLSLEISPQNVDVNVHPTKHEVHFLHEESILERVQQHIESKLLGSNSSRMYFTQTLLPGLAGPSGEMVKSTTSLTSSSTSGSSDKVYAHQMVRTDSREQKLDAFLQPLSKPLSSQPQAIVTEDKTDISSGRARQQDEEMLELPAPAEVAAKNQSLEGDTTKGTSEMSEKRGPTSSNPRKRHREDSDVEMVEDDSRKEMTAACTPRRRIINLTSVLSLQEEINEQGHEVLREMLHNHSFVGCVNPQWALAQHQTKLYLLNTTKLSEELFYQILIYDFANFGVLRLSEPAPLFDLAMLALDSPESGWTEEDGPKEGLAEYIVEFLKKKAEMLADYFSLEIDEEGNLIGLPLLIDNYVPPLEGLPIFILRLATEVNWDEEKECFESLSKECAMFYSIRKQYISEESTLSGQQSEVPGSIPNSWKWTVEHIVYKALRSHILPPKHFTEDGNILQLANLPDLYKVFERC
partner: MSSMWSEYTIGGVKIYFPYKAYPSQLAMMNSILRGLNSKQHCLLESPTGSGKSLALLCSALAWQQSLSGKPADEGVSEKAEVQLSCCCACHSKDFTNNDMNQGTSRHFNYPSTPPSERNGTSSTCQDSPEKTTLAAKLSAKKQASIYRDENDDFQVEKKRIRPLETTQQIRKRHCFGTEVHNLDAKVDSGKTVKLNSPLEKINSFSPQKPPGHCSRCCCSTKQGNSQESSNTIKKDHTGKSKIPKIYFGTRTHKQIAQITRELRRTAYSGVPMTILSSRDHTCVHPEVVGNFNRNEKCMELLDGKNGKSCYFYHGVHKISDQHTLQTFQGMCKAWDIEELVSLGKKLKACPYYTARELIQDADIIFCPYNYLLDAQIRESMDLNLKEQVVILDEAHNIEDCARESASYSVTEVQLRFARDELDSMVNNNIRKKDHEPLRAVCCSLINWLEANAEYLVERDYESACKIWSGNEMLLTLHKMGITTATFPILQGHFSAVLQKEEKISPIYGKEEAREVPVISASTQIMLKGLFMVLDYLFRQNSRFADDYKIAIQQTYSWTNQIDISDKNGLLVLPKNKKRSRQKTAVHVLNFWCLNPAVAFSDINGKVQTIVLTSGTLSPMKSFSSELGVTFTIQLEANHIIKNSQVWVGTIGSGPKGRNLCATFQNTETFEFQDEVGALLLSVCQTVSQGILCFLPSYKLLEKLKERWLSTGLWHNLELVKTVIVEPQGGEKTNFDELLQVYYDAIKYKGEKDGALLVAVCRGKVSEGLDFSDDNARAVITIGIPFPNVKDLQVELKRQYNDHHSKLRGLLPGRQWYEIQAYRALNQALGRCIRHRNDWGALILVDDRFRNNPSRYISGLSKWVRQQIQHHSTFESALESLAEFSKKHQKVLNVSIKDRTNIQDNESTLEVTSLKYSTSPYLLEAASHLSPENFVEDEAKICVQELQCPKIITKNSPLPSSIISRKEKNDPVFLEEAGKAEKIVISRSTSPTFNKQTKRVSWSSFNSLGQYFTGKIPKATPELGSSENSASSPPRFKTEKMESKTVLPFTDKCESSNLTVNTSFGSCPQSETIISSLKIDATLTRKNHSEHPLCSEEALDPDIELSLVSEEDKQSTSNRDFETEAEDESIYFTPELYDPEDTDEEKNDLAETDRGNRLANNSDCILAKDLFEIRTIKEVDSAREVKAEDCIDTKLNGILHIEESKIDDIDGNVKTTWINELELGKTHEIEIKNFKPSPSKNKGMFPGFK
B5: Cyclin-dependent kinase 4 inhibitor C (Homo sapiens), P42773 (parent)
chain: MAEPWGNELASAAARGDLEQLTSLLQNNVNVNAQNGFGRTALQVMKLGNPEIARRLLLRGANPDLKDRTGFAVIHDAARAGFLDTLQTLLEFQADVNIEDNEGNLPLHLAAKEGHLRVVEFLVKHTASNVGHRNHKGDTACDLARLYGRNEVVSLMQANGAGGATNLQ
B6: Scaffold protein ILK (Homo sapiens), Q13418 (parent)
chain: MDDIFTQCREGNAVAVRLWLDNTENDLNQGDDHGFSPLHWACREGRSAVVEMLIMRGARINVMNRGDDTPLHLAASHGHRDIVQKLLQYKADINAVNEHGNVPLHYACFWGQDQVAEDLVANGALVSICNKYGEMPVDKAKAPLRELLRERAEKMGQNLNRIPYKDTFWKGTTRTRPRNGTLNKHSGIDFKQLNFLTKLNENHSGELWKGRWQGNDIVVKVLKVRDWSTRKSRDFNEECPRLRIFSHPNVLPVLGACQSPPAPHPTLITHWMPYGSLYNVLHEGTNFVVDQSQAVKFALDMARGMAFLHTLEPLIPRHALNSRSVMIDEDMTARISMADVKFSFQCPGRMYAPAWVAPEALQKKPEDTNRRSADMWSFAVLLWELVTREVPFADLSNMEIGMKVALEGLRPTIPPGISPHVCKLMKICMNEDPAKRPKFDMIVPILEKMQDK
partner: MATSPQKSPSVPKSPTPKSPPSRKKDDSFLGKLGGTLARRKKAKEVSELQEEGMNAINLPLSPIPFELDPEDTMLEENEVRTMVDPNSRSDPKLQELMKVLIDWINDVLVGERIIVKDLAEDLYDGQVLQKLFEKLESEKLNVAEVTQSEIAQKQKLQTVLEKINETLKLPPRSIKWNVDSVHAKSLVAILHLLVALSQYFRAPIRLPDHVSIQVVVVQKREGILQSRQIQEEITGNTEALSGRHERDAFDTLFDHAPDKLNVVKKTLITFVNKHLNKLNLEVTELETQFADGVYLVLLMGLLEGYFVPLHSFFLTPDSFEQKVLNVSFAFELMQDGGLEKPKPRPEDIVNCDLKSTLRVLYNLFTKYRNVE
B7: ADP-ribosylation factor-like protein 2-binding protein (Homo sapiens), Q9Y2Y0 (parent)
chain: MDALEGESFALSFSSASDAEFDAVVGYLEDIIMDDEFQLLQRNFMDKYYLEFEDTEENKLIYTPIFNEYISLVEKYIEEQLLQRIPEFNMAAFTTTLQHHKDEVAGDIFDMLLTFTDFLAFKEMFLDYRAEKEGRGLDLSSGLVVTSLCKSSSLPASQNNLRH

In one assay the parent is B1. Particulars: with ccnd1_human CCND1, P24385.
Sequence of ccnd1_human CCND1, P24385 (P24385 whole entry): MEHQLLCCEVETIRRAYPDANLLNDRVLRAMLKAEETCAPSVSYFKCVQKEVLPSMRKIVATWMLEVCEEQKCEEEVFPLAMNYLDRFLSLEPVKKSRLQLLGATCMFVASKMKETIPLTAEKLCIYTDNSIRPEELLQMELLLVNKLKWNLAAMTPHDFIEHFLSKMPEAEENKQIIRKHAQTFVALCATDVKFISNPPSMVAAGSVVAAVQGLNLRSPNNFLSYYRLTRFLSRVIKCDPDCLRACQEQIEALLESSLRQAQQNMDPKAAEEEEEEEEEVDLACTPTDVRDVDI
As for MATSRYEPVAEIGVGAYGTVYKARDPHSGHFVALKSVRVPNGGGGGGGLPINTVREVALLRRLEAFEHPNVVRLMDVCATSRTDREIKVTLVFEHVDQDLRTYLDKAPPPGLPAETIKDLMRQFLRGLDFLHANCIVHRDLKPENILVTSGGTVKLADFGLARIYSYQMALTPVVVTLWYRAPEVLLQSTYATPVDMWSVGCIFAEMFRRKPLFCGNSEADQLGKIFDLIGLPPEDDWPRDVSLPRGAFPPRGPRPVQSVVPEMEESGAQLLLEMLTFNPHKRISAFRALQHSYLHKDEGNPE [S52N], the “effect of a mutation on the interaction” value is listed as “with no effect”.

Variants of B2 are the subject of the next assay. The conditions noted are these: with baf_human BANF1, O75531.
MDNYADLSDTELTTLLRRYNIPHGPVVGSTRRLYEKKIFEYETQRRRLSPPSSSAASSYSFSDLNSTRGDADMYDLPKKEDALLYQSKGYNDDYYEESYFTTRTYGEPESAGPSRAVRQSVTSFPDADAFHHQVHDDDLLSSSEEECKDRERPMYGRDSAYQSITHYRPVSASRSSLDLSYYTTSSSTSFMSSSSSSSSWLTRRAIRPENRAPGAGLGQDRQVPLWGQLLLFLVFVIVLFFIYHFMQAEEGNPF [P183T]: the “effect of a mutation on the interaction” value is listed as “with no effect”.

As for MDNYADLSDTELTTLLRRYNIPHGPVVGSTRRLYEKKIFEYETQRRRLSPPSSSAASSYSFSDLNSTRGDAVMYDLPKKEDALLYQSKGYNDDYYEESYFTTRTYGEPESAGPSRAVRQSVTSFPDADAFHHQVHDDDLLSSSEEECKDRERPMYGRDSAYQSITHYRPVSASRSSLDLSYYPTSSSTSFMSSSSSSSSWLTRRAIRPENRAPGAGLGQDRQVPLWGQLLLFLVFVIVLFFIYHFMQAEEGNPF [D72V], the “effect of a mutation on the interaction” value is “with no effect”. For MDNYADLSDTELTTLLRRYNIPHGPVVGSTRRLYEKKIFEYETQRRRLSPPSSFAASSYSFSDLNSTRGDADMYDLPKKEDALLYQSKGYNDDYYEESYFTTRTYGEPESAGPSRAVRQSVTSFPDADAFHHQVHDDDLLSSSEEECKDRERPMYGRDSAYQSITHYRPVSASRSSLDLSYYPTSSSTSFMSSSSSSSSWLTRRAIRPENRAPGAGLGQDRQVPLWGQLLLFLVFVIVLFFIYHFMQAEEGNPF [S54F], the “effect of a mutation on the interaction” value was “with no effect”.

Variants of B3 are the subject of a further assay. Particulars: with emd_human EMD.
Take MTTSQKHRDFVTEPMGEKPVGSLAGIGEVLGKKLEERGFDKAYVVLGQFLVLKKDEDLFREWLKDTCGANAKQSRDCFGCLREWCDAFL [A12T]: the “effect of a mutation on the interaction” value is reported as “with no effect”.

The variants in the next assay derive from B4. Particulars: with fancj_human BRIP1, Q9BX63.
Consider I107R, for which the “effect of a mutation on the interaction” value is “with no effect”.

Variants of B5 are the subject of another assay. The conditions noted are these: with cdk6_human CDK6, Q00534.
Sequence of cdk6_human CDK6, Q00534 (Q00534 whole entry): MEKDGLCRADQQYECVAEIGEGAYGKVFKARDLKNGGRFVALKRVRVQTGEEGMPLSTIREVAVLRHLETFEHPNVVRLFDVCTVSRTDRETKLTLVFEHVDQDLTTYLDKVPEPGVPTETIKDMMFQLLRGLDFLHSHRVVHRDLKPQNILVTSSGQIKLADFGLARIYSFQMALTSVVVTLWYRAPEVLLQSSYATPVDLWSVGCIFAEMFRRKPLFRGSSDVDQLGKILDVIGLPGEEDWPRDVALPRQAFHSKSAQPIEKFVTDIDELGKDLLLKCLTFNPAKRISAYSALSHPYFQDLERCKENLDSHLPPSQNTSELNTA
As for MAEPWGNELASAAARGDLEQLTSLLQNNVNLNAQNGFGRTALQVMKLGNPEIARRLLLRGANPDLKDRTGFAVIHDAARAGFLDTLQTLLEFQADVNIEDNEGNLPLHLAAKEGHLRVVEFLVKHTASNVGHRNHKGDTACDLARLYGRNEVVSLMQANGAGGATNLQ [V31L], the “effect of a mutation on the interaction” value is on record as “with no effect”.

In the next assay the parent is B6. The conditions noted are these: with parva_human PARVA.
MDDIFTQCREGNAVAVRLWLDNTENDLNQGDDHGFSPLHWACREGRSAVVEMLIMRGARINVMNRGDDTPLHLAASHGHRDIVQKLLQYKADINAVNEHGNVPLHYACFWGQDQVAEDLVANGALVSICNKYGEMPVDKAKAPLRELLRERAEKMGQNLNRIPYKDTFWKGTTRTRPRNGTLNKHSGIDFKQLNFLTKLNENHSGELWKGRWQGNDIVVKVLKVRDWSTRKSRDFNEECPRLRIFSHPNVLPVLGACQSPPVPHPTLITHWMPYGSLYNVLHEGTNFVVDQSQAVKFALDMARGMAFLHTLEPLIPRHALNSRSVMIDEDMTARISMADVKFSFQCPGRMYAPAWVAPEALQKKPEDTNRRSADMWSFAVLLWELVTREVPFADLSNMEIGMKVALEGLRPTIPPGISPHVCKLMKICMNEDPAKRPKFDMIVPILEKMQDK [A262V]: the “effect of a mutation on the interaction” value was “with no effect”.

The variants in another assay derive from B7. Particulars: with arl2_human ARL2, P36404.
Sequence of arl2_human ARL2, P36404 (P36404 whole entry): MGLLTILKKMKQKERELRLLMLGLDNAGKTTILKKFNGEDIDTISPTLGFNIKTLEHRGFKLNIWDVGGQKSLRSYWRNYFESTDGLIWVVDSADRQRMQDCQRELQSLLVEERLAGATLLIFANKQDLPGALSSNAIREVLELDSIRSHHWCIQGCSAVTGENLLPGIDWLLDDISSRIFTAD
For the variant MDALEGESFALSFSSASDAEFDAVVGYLEDIIMDDEFQLLQRNFRDKYYLEFEDTEENKLIYTPIFNEYISLVEKYIEEQLLQRIPEFNMAAFTTTLQHHKDEVAGDIFDMLLTFTDFLAFKEMFLDYRAEKEGRGLDLSSGLVVTSLCKSSSLPASQNNLRH [M45R], the “effect of a mutation on the interaction” value is “disrupting interaction strength”.
